Measured values published in US20230227508A1, “SPLIT INTEIN-BASED SELECTION FOR PEPTIDE BINDERS” (priority 2020, published 2023).

Molecular target: σN-NpuN-Mdm2* bait fusion (residues 17-124 of Mdm2) (UniProt Q00987)
Assay: cell-based or functional assay

Chain of σN-NpuN-Mdm2* bait fusion (residues 17-124 of Mdm2) (Q00987 other isoform, or with tags, fused parts or gaps limits assumed): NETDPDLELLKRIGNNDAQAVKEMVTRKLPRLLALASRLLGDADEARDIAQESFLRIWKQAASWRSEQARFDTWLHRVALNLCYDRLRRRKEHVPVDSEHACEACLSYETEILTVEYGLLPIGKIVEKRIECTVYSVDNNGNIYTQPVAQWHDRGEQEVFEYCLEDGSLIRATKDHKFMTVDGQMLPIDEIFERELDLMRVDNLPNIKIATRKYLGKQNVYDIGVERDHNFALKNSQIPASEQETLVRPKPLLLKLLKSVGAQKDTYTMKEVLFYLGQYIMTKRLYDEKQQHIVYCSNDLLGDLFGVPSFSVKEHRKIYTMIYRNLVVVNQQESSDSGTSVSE

Question: With “PMI-NpuC-σC peptide fusion (PMI, high affinity variant of residues 15-29 of p53)” as the substance, how does the difference in output with against without bait and peptide when σN-NpuN was fully induced and the NpuC-σC fragment uninduced read?
Answer: Its difference in output with against without bait and peptide when σN-NpuN was fully induced and the NpuC-σC fragment uninduced is greater than 200 fold.
